Data taken from patent US20230042176.

Columns and labels:
[1] = target: BK, endogenous, in primary mouse cortical neurons, Q08460
[2] = target: Flag-tagged BK (Flag-BK), overexpressed in HEK293 cells

Sequence of BK, endogenous, in primary mouse cortical neurons, Q08460 (Q08460 whole entry): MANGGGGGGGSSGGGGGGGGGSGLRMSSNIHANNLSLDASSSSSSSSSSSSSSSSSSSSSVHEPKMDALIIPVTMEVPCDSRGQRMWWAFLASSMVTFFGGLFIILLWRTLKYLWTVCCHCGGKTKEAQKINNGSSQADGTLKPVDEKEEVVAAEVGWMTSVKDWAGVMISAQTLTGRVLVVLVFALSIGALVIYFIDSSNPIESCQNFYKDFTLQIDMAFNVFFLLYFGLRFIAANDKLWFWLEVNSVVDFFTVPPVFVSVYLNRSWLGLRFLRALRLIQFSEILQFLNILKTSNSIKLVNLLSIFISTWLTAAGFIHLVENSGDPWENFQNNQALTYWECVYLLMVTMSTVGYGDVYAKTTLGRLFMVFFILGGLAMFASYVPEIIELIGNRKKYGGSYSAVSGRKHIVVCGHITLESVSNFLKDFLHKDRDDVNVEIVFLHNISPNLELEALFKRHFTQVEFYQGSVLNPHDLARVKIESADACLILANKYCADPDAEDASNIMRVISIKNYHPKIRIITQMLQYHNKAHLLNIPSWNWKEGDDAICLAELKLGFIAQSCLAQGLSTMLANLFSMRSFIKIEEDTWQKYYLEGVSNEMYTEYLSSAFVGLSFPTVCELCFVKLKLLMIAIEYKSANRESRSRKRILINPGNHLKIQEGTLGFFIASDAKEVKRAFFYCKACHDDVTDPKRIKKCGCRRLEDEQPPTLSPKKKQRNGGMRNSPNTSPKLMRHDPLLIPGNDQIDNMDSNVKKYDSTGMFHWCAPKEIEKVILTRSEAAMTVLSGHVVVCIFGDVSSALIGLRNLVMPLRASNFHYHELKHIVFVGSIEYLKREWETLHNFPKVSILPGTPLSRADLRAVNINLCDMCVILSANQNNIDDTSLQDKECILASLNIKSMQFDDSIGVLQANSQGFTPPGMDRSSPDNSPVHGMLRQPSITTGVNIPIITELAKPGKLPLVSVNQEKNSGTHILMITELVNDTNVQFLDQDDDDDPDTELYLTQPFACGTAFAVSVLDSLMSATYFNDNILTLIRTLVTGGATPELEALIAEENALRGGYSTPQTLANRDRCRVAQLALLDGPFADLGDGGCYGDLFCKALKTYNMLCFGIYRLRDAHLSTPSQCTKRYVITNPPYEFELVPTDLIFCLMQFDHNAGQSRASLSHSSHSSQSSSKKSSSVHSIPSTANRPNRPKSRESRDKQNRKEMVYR

B1: Ube3a, endogenous, in primary mouse cortical neurons (WT against Ube3a m-/p+ mice) (protein)
chain: MATACKRSPGESQSEDIEASRMKRAAAKHLIERYYHQLTEGCGNEACTNEFCASCPTFLRMDNNAAAIKALELYKINAKLCDPHPSKKGASSAYLENSKGASNNSEIKMNKKEGKDFKDVIYLTEEKVYEIYEFCRESEDYSPLIRVIGRIFSSAEALVLSFRKVKQHTKEELKSLQEKDEDKDEDEKEKAACSAAAMEEDSEASSSRMGDSSQGDNNVQKLGPDDVTVDIDAIRRVYSSLLANEKLETAFLNALVYLSPNVECDLTYHNVYTRDPNYLNLFIIVMENSNLHSPEYLEMALPLFCKAMCKLPLEAQGKLIRLWSKYSADQIRRMMETFQQLITYKVISNEFNSRNLVNDDDAIVAASKCLKMVYYANVVGGDVDTNHNEEDDEEPIPESSELTLQELLGDERRNKKGPRVDPLETELGVKTLDCRKPLISFEEFINEPLNDVLEMDKDYTFFKVETENKFSFMTCPFILNAVTKNLGLYYDNRIRMYSERRITVLYSLVQGQQLNPYLRLKVRRDHIIDDALVRLEMIAMENPADLKKQLYVEFEGEQGVDEGGVSKEFFQLVVEEIFNPDIGMFTYDEATKLFWFNPSSFETEGQFTLIGIVLGLAIYNNCILDVHFPMVVYRKLMGKKGTFRDLGDSHPVLYQSLKDLLEYEGSVEDDMMITFQISQTDLFGNPMMYDLKENGDKIPITNENRKEFVNLYSDYILNKSVEKQFKAFRRGFHMVTNESPLKYLFRPEEIELLICGSRNLDFQALEETTEYDGGYTRESVVIREFWEIVHSFTDEQKRLFLQFTTGTDRAPVGGLGKLKMIIAKNGPDTERLPTSHTCFNVLLLPEYSSKEKLKERLLKAITYAKGFGML
With B1 the “endogenous BK ubiquitination (BK IP, ubiquitin antibody blot, primary mouse cortical neurons)” value [1] was “BK ubiquitination by UBE3A was further confirmed ... by assessing endogenous BK ubiquitination using mouse cortical neurons derived from either WT or Ube3a^m-/p+ mice (FIGS. 11D-11E)”.

B2: UBE3A, recombinant, as used in the in vitro ubiquitination assay (ubiquitination kit K-230, Boston Biochem) (protein)
chain: MEKLHQCYWKSGEPQSDDIEASRMKRAAAKHLIERYYHQLTEGCGNEACTNEFCASCPTFLRMDNNAAAIKALELYKINAKLCDPHPSKKGASSAYLENSKGAPNNSCSEIKMNKKGARIDFKDVTYLTEEKVYEILELCREREDYSPLIRVIGRVFSSAEALVQSFRKVKQHTKEELKSLQAKDEDKDEDEKEKAACSAAAMEEDSEASSSRIGDSSQGDNNLQKLGPDDVSVDIDAIRRVYTRLLSNEKIETAFLNALVYLSPNVECDLTYHNVYSRDPNYLNLFIIVMENRNLHSPEYLEMALPLFCKAMSKLPLAAQGKLIRLWSKYNADQIRRMMETFQQLITYKVISNEFNSRNLVNDDDAIVAASKCLKMVYYANVVGGEVDTNHNEEDDEEPIPESSELTLQELLGEERRNKKGPRVDPLETELGVKTLDCRKPLIPFEEFINEPLNEVLEMDKDYTFFKVETENKFSFMTCPFILNAVTKNLGLYYDNRIRMYSERRITVLYSLVQGQQLNPYLRLKVRRDHIIDDALVRLEMIAMENPADLKKQLYVEFEGEQGVDEGGVSKEFFQLVVEEIFNPDIGMFTYDESTKLFWFNPSSFETEGQFTLIGIVLGLAIYNNCILDVHFPMVVYRKLMGKKGTFRDLGDSHPVLYQSLKDLLEYEGNVEDDMMITFQISQTDLFGNPMMYDLKENGDKIPITNENRKEFVNLYSDYILNKSVEKQFKAFRRGFHMVTNESPLKYLFRPEEIELLICGSRNLDFQALEETTEYDGGYTRDSVLIREFWEIVHSFTDEQKRLFLQFTTGTDRAPVGGLGKLKMIIAKNGPDTERLPTSHTCFNVLLLPEYSSKEKLKERLLKAITYAKGFGML
For B2, the “in vitro ubiquitination assay (E1 Ube1, E2 UbcH5c, HA-Ub)” value [2] was “BK ubiquitination by UBE3A was further confirmed by an in vitro ubiquitination assay using recombinant proteins (FIG. 11C)”.
